Source: US20200392228A1 (PANDION OPERATIONS, published 2020)
Where two headings read alike, the source gives them in different places.

T1: human MAdCAM protein (human, UniProt Q13477 19-317)
T1 construct: used for Octet, SPR, ELISA and plate capture; construct not described; also called recombinant human MAdCAM; soluble monomeric human MAdCAM
T1 sequence (looked up): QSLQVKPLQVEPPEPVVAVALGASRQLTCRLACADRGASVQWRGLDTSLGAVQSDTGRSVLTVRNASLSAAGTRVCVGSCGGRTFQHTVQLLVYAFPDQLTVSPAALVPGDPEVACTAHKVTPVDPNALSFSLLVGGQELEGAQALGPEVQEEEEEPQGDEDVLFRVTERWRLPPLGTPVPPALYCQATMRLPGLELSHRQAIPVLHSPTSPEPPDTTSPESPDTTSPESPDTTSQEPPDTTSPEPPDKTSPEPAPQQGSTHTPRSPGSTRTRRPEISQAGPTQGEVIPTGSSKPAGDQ

T2: human MAdCAM expressed on cells (human, UniProt Q13477 19-382)
T2 construct: whole, on cells; also called MADCAM1
T2 sequence (looked up): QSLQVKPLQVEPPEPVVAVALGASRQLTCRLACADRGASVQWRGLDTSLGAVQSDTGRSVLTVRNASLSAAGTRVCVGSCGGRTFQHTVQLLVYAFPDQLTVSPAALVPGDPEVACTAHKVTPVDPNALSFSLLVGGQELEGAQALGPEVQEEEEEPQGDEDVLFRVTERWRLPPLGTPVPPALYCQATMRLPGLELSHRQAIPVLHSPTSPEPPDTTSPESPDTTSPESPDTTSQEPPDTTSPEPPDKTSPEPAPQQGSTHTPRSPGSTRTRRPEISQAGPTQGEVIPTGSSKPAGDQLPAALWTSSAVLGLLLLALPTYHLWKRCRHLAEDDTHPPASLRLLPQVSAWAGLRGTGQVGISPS

T3: mouse MAdCAM expressed on cells (mouse, UniProt Q61826 22-405)
T3 construct: whole, on cells
T3 sequence (looked up): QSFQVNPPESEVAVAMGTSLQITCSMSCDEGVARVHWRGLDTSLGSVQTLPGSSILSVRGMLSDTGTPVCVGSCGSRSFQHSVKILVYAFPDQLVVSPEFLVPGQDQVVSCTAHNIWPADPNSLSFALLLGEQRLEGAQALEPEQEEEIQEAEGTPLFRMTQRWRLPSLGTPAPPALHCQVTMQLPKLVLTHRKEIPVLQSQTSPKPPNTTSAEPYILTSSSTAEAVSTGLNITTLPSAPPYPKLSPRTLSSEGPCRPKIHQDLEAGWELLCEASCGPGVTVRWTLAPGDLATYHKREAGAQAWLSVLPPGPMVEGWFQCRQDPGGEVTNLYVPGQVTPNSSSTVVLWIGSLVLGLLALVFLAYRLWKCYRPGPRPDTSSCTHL

T4: mouse MAdCAM protein (mouse, UniProt Q61826 22-365, limits assumed)
T4 construct: also called recombinant mouse MAdCAM-1; mMAdCAM-1
T4 sequence (looked up): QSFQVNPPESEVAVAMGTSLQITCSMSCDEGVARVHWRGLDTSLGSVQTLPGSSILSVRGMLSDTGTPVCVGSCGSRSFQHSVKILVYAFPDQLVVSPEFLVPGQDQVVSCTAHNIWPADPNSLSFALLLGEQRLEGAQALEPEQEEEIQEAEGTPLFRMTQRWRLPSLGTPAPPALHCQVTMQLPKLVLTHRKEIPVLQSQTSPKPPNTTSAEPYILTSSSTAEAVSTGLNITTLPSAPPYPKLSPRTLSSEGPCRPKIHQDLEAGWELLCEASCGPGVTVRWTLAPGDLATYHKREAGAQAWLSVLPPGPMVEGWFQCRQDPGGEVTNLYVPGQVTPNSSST


Legend:
human MAdCAM protein [1] = biological target: T1, human MAdCAM protein; experiment: Octet
[2] = biological target: T2, human MAdCAM expressed on cells; experiment: cell binding
[3] = biological target: T3, mouse MAdCAM expressed on cells; experiment: cell binding
human MAdCAM protein [4] = biological target: T1, human MAdCAM protein; experiment: Octet; remark: listed apart in the source
mouse MAdCAM protein = biological target: T4, mouse MAdCAM protein; experiment: Octet
[5] = biological target: T2, human MAdCAM expressed on cells; experiment: cell binding; remark: listed apart in the source
[6] = biological target: T3, mouse MAdCAM expressed on cells; experiment: cell binding; remark: listed apart in the source

Binder | binding result (human MAdCAM protein [1]) | binding result [2] | binding result [3] | binding result (human MAdCAM protein [4]) | binding result (mouse MAdCAM protein) | binding result [5] | binding result [6]
MAdCAM antibody Clone ID 66 of Table 6 (scFv) (scFv) scFv: EVQLLESGGGLVQPGGSLRLSCAASGFTFSSYWMHWVRQAPGKGLEWVAAISYDGKYKDYEDSVKGRFTISRDNSKNTLYLQMNSLRAEDTAVYYCARENKQWLASFDYWGQGTLVTVSSGGGGSGGGGSGGGGSGGGGSDIQMTQSPSSLSASVGDRVTITCQASQDISNFVNWYQQKPGKAPKLLIYAANLRSGVPSRFSGSGSGTDFTLTISSLQPEDFATYYCQQANSFPVTFGPGTKVDIK | binds | binds | binds |  |  |  | 
MAdCAM antibody Clone ID 6 of Table 7 (IgG) (antibody, V domains shown, IgG format) VH: EVQLLESGGGLVQPGGSLRLSCAASGFTFNNYAFHWVRQAPGKGLEWVSRINSYGTSTTYADSVKGRFTISRDNSKNTLYLQMNSLRAEDTAVYYCAREGPVAGYWYFDLWGQGTLVTVSS VL: DIQMTQSPSSLSASVGDRVTITCRASQIIGTNLAWYQQKPGKAPKLLIYGASSLQSGVPSRFSGSGSGTDFTLTISSLQPEDFATYYCQQSYRLPFTFGQGTKVEIK |  |  |  | binds | no binding | binds | no binding
MAdCAM antibody Clone ID 17 of Table 7 (IgG) (antibody, V domains shown, IgG format) VH: QVQLVQSGAEVKKPGSSVKVSCKASGYTFTDYHIHWVRQAPGQGLEWMGGIVPRSGSTTYAQKFQGRVTITADESTSTAYMELSSLRSEDTAVYYCAKDESSGWYYFDYWGQGTLVTVSS VL: DIVMTQSPLSLPVTPGEPASISCRSSQSLLHSNGYNYLDWYLQKPGQSPQLLIYSAYNRASGVPDRFSGSGSGTDFTLKISRVEAEDVGVYYCMQALQTPLTFGQGTKVEIK |  |  |  | binds | no binding | binds | no binding
MAdCAM antibody Clone ID 14 of Table 7 (IgG) (antibody, V domains shown, IgG format) VH: QVQLVQSGAEVKKPGSSVKVSCKASGYTFTNYYMHWVRQAPGQGLEWMGGIIPIVDGVKYAQKFQGRVTITADESTSTAYMELSSLRSEDTAVYYCAKGQFTGNYYYGMDYWGQGTLVTVSS VL: DIQMTQSPSSLSASVGDRVTITCQANQDISNYLNWYQQKPGKAPKLLIYRASKLEAGVPSRFSGSGSGTDFTLTISSLQPEDFATYYCQQSSEIPYSFGQGTKVEIK |  |  |  |  | no binding |  | no binding
MAdCAM antibody Clone ID 20 of Table 7 (IgG) (antibody, V domains shown, IgG format) VH: EVQLLESGGGLVQPGGSLRLSCAASGFTFSDSAMHWVRQAPGKGLEWVSAISGSGSTIYYADSVKGRFTISRDNSKNTLYLQMNSLRAEDTAVYYCVSDIAVAGHWYFDLWGRGTLVTVSS VL: DIQMTQSPSSLSASVGDRVTITCRASQSISTFLNWYQQKPGKAPKLLIYAASRLEGGVPSRFSGSGSGTDFTLTISSLQPEDFATYYCQQANSFPLTFGPGTKVDIK |  |  |  | binds | no binding | binds | no binding
MAdCAM antibody Clone ID 22 of Table 7 (IgG) (antibody, V domains shown, IgG format) VH: EVQLLESGGGLVQPGGSLRLSCAASGFTFDDYAMHWVRQAPGKGLEWVSGISWNSGSIGYADSVKGRFTISRDNSKNTLYLQMNSLRAEDTAVYYCAKDIVAAGHYYYGMDVWGQGTTVTVSS VL: DIQMTQSPSSLSASVGDRVTITCQASQDISNYLNWYQQKPGKAPKLLIYDASNLETGVPSRFSGSGSGTDFTLTISSLQPEDFATYYCQQSYSTPLTFGGGTKVEIK |  |  |  | binds | no binding | binds | no binding
MAdCAM antibody Clone ID 24 of Table 7 (IgG) (antibody, V domains shown, IgG format) VH: EVQLVESGGGLVKPGGSLRLSCAASGFTFSSYWMSWVRQAPGKGLEWVSRISSDGRITTYAAPVKGRFTISRDDSKNTLYLQMNSLKTEDTAVYYCARGTSYCTGGVCDIDYWGQGTLVTVSS VL: DIQMTQSPSSLSASVGDRVTITCRASQSIGRNLNWYQQKPGKAPKLLIYSASNLQSGVPSRFSGSGSGTDFTLTISSLQPEDFATYYCQQSYSIPLTFGPGTKVDIK |  |  |  |  | no binding | binds | no binding
MAdCAM antibody Clone ID 30 of Table 7 (IgG) (antibody, V domains shown, IgG format) VH: EVQLLESGGGLVQPGGSLRLSCAASGFTFSSYAMHWVRQAPGKGLEWVSGISGSGGSAYYADSVKGRFTISRDNSKNTLYLQMNSLRAEDTAVYYCATSQAPVDYYYYGMDVWGQGTTVTVSS VL: DIQMTQSPSSLSASVGDRVTITCRASQSISSWLAWYQQKPGKAPKLLIYAASNLQRGVPSRFSGSGSGTDFTLTISSLQPEDFATYYCQQSYSIPITFGQGTKVEIK |  |  |  | binds |  | binds | binds
MAdCAM antibody Clone ID 36 of Table 7 (IgG) (antibody, V domains shown, IgG format) VH: EVQLLESGGGLVQPGGSLRLSCAASGFTFDDYALHWVRQAPGKGLEWVSAISGDGRSTTYADSVKGRFTISRDNSKNTLYLQMNSLRAEDTAVYYCARDGTVNGATGWFDPWGQGTLVTVSS VL: not shown |  |  |  | binds |  | binds | binds
MAdCAM antibody Clone ID 58 of Table 7 (IgG) (antibody, V domains shown, IgG format) VH: EVQLLESGGGLVQPGGSLRLSCAASGFSVSSNYMSWVRQAPGKGLEWVAGISYDGSSKPYADSVKGRFTISRDNSKNTLYLQMNSLRAEDTAVYYCARSRGIAARPLQHWGQGTLVTVSS VL: not shown |  |  |  | binds |  | binds | no binding
MAdCAM antibody Clone ID 78 of Table 7 (IgG) (antibody, V domains shown, IgG format) VH: QVQLVQSGAEVKKPGSSVKVSCKASGGTFSSYAISWVRQAPGQGLEWMGWMEPHTGNTRYAQKFQGRVTITADESTSTAYMELSSLRSEDTAVYYCAKGGFSWFDPWGQGTLVTVSS VL: not shown |  |  |  | binds |  | binds | binds
MAdCAM antibody Clone ID 65 of Table 7 (IgG) (antibody, V domains shown, IgG format) VH: QVQLVQSGAEVKKPGASVKVSCKASGYTFTSYDINWVRQAPGQGLEWMGWMNPNSGNTGYAQKFQGRVTMTRDTSTSTVYMELSSLRSEDTAVYYCAKDSDYSNLLWDYWGQGTLVTVSS VL: DIQMTQSPSSLSASVGDRVTITCRASQDITNDLGWYQQKPGKAPKLLIYQASSLESGVPSRFSGSGSGTDFTLTISSLQPEDFATYYCQQSYTIPLTFGQGTKVEIK |  |  |  |  | no binding |  | no binding
MAdCAM antibody Clone ID 74 of Table 7 (IgG) (antibody, V domains shown, IgG format) VH: QVQLVQSGAEVKKPGASVKVSCKASGYTFTGYYMHWVRQAPGQGLEWMGIINPSGGNTKYAQKFQGRVTMTRDTSTSTVYMELSSLRSEDTAVYYCTTADYYYYMDVWGKGTTVTVSS VL: DIQMTQSPSSLSASVGDRVTITCRASQGISNYLAWYQQKPGKAPKLLIYAASSLQSGVPSRFSGSGSGTDFTLTISSLQPEDFATYYCQQYYSNADFGQGTKVEIK |  |  |  |  | no binding |  | no binding
MAdCAM antibody Clone ID 28 of Table 7 (IgG) (antibody, V domains shown, IgG format) VH: EVQLLESGGGLVQPGGSLRLSCAASGFTFSSYAMSWVRQAPGKGLEWVSYISSSSTYTNYADSVKGRFTISRDNSKNTLYLQMNSLRAEDTAVYYCARANSSSWYDWYFDLWGQGTLVTVSS VL: not shown |  |  |  |  | no binding |  | no binding
MAdCAM antibody Clone ID 29 of Table 7 (IgG) (antibody, V domains shown, IgG format) VH: EVQLLESGGGLVQPGGSLRLSCAASGFTFSSYQMSWVRQAPGKGLEWVSYISSSSTYTNYADSVKGRFTISRDNSKNTLYLQMNSLRAEDTAVYYCARANSSSWYDWYFDLWGQGTLVTVSS VL: not shown |  |  |  |  | no binding |  | no binding
